Ends that are not written are not given here.
Molecular target: T1, monoclonal antibody (mAb) specific for the N-terminus amino acid sequence …, HRP-labeled, employed in the … (horseradish peroxidase (HRP) label, site not stated)
T1 construct: Mouse IgG2b / kappa from a hybridoma; also called HRP-labeled mAb; selected mAb
Assay: competitive ELISA: selection peptide against coated …-K-biotin for the HRP-labeled mAb; 10 independent runs
Protocol: All incubation steps were performed in the dark with constant shaking at 300 rpm and followed by five times wash of the wells using washing buffer ([…], 50 mM NaCl, pH 7.2). A 10-point calibration curve was plotted using a 4-parameter logistic curve fit of the selection peptide dilutions. Data were analyzed using the SoftMax Pro version 7.1.0 software (Molecular Devices).
Antibody specificity was evaluated using synthetic peptides and calculated as percentage of signal inhibition of two-fold diluted selection and deselection peptides (Table 1). Unspecific binding was tested using a nonsense screening peptide (biotin-[…] (SEQ ID NO: 23)). IC50 (half-maximal inhibition concentration) was determined from 10 independent runs of the 10-point calibration curve. The technical lower limit of detection (LLOD) was calculated as the mean signal of 60 determinations of a blank sample (i.e., assay buffer) plus 3× standard deviation (SD). The upper limit of quantification (ULOQ) was determined from 10 independent runs of the calibration curve and determined as the highest concentration of selection peptide determined with a recovery percentage within 100±20% of the nominal concentration and a CV<20%. […] Two-fold dilutions of four human serum samples quantified in three independent runs were used to evaluate assay linearity, calculated as percentage of recovery of the undiluted sample. […]

T1 sequence (VH, as listed by the source, chain 1 of 2): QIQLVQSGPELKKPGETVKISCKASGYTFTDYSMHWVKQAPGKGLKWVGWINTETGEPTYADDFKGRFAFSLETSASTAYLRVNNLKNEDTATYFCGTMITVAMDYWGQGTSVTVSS
T1 sequence (VL, as listed by the source, chain 2 of 2): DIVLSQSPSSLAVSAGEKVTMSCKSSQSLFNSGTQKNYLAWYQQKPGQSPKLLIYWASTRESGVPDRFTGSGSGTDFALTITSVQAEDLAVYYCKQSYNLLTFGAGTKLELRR

B1: Selection peptide VDTLPQKPRE (peptide)
peptide: VDTLPQKPRE
modifications: not fully specified
notes: Synthetic peptide (Genscript); the end 75 follows from the ten residues; also called calibrator peptide
  IC50: 0.0369 µg/mL
